Reference: US20040265932A1 (AbbVie / Abbott, published 2004)

Target: T1, Mammaglobin polypeptide from breast cancer tissue extract (human, UniProt Q13296 19-93, glycoprotein (Asn 53 and/or Asn 68 may carry sugars))
T1 construct: native protein in tissue extract, 17-23 kD reduced
Test: legend of FIG. 20A-D; MonoQ fractions, dot blots and Western blots
Description: C. Ion Exchange Chromatography The breast cancer tissue extract derived from the patient with invasive, poorly differentiated adenocarcinoma (breast) (FIG. 11, lanes. 4 and 10) was purified using anion exchange chromatography. Specifically, the 800 uL extract was applied to a Mono Q 5/5 column (Pharmacia) equilibrated with 20 mM piperazine, pH 6.0. The proteins were eluted using a linear gradient of sodium chloride. The flow rate was 1 mL/min; the gradient was 20 mM sodium chloride per milliliter of buffer; and the elution time was 50 minutes; creating an elution profile that went from 0 to 1000 mM sodium chloride. The sample loading time was 30 minutes prior to application of the elution gradient. Each 1 mL fraction was sampled. One hundred microliters of each fraction was boiled in the presence of 0.1% beta-mercaptoethanol and was then applied to a well of a dot blot apparatus and the volume was suctioned through a piece of nitrocellulose. The nitrocellulose filter was then developed with the same procedure to develop Western blots, as described hereinabove in Example 7B, using polyclonal antisera recognizing either BU101 or Mam. […]
Protein extracted from breast tissue was fractionated using a MonoQ column at pH6 and eluted using increasing salt gradient. […] The MamBu complex is detected using both antibodies under non-reducing conditions (FIGS. 20C & D). […]

T1 sequence (Q13296 19-93 limits assumed): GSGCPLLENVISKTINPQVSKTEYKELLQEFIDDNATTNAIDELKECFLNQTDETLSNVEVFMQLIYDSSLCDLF

B1: BU101 polypeptide from breast cancer tissue extract (other)
chain: EFCPALVSELLDFFFISEPLFKLSLAKFDAPPEAVAAKLGVKRCTDQMSLQKRSLIAEVLVKILKKCSV
notes: native protein in tissue extract, about 7 kD reduced
Q: Does B1 bind?
A: binds
